Results published in PMC4018121.

Biological target: rhSTIP1 (stress-induced phosphoprotein 1) (Homo sapiens, UniProt P31948 1-543)
Experiment: aptamer blot on nitrocellulose, chemiluminescence

B1: TOV6 (structured_DNA)
DNA: ATCCAGAGTGACGCAGCACGGCACTCACTCTTTGTTAAGTGGTCTGCTTCTTAACCTTCATCGACACGGTGGCTTA
B1: binds.
